Assay results from US20260152555A1 (HUAHUI HEALTH, published 2026).

How the values were obtained:
L72A = target: T1, L72A (human, UniProt Q6DKI7); experiment: SPR (Biacore T200), multi-cycle; H733-hIgG4 captured on anti-hFc Ab, hCD112R-ECD-mFc variant injected (3.125-100 nM); 1:1 Langmuir [Cont') B]
T1 construct: extracellular domain, amino acids 42-172; alanine-scanning variant; also called hCD112R-ECD-mFc L72A variant
T1 sequence (Fc fusion chain, looked up): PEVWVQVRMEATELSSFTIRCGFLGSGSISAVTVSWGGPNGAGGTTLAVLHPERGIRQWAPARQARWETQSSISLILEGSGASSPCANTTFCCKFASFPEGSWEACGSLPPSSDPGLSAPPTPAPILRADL
Experimental: (§1) Kinetic analyses of the bindings of WT or mutated hCD112R-ECD-mFc proteins to H733 and hCD112-ECD were performed on a Biacore T200 instrument (Biacore, GE Healthcare). For the single-cycle SPR analysis, anti-mFc Ab (Thermo Fisher) was covalently attached to surfaces of a CM5 sensor chip using an amine coupling kit (GE Healthcare). WT or mutated hCD112R-ECD mFc fusion proteins were captured on the chip and H733-hIgG4 or hCD112-ECD-hFc were then injected. For the multi-cycle SPR analysis, anti-hFc Ab (Thermo Fisher) was covalently attached to surfaces of a CM5 sensor chip using an amine coupling kit (GE Healthcare). H733-hIgG4 or hCD112-ECD-hFc protein was captured on the chip and 2-fold serially diluted WT or mutated hCD112R-ECD-mFc proteins (3.125-100 nM) were then injected. Binding kinetics were evaluated using a 1:1 Langmuir binding model. The association rates (ka), dissociation rates (kd), and affinity constants (KD) were calculated using Biacore T200 evaluation software.

E94A = target: T2, E94A (human, UniProt Q6DKI7); experiment: as above
T2 construct: extracellular domain, amino acids 42-172; alanine-scanning variant; also called hCD112R-ECD-mFc E94A variant
T2 sequence (Fc fusion chain, looked up): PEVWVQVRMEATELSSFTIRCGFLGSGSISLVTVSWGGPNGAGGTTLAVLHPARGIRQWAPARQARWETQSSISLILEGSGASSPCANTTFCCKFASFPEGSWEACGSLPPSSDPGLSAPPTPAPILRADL
Experimental: as §1

[1] = target: T3, hCD112R-ECD-mFc W100A variant (human; mouse, UniProt Q6DKI7 42-172); experiment: as above
T3 construct: range 42-172; also called W100A mutation of hCD112R; not shown: Fc domain of mouse IgG2a
T3 sequence (looked up): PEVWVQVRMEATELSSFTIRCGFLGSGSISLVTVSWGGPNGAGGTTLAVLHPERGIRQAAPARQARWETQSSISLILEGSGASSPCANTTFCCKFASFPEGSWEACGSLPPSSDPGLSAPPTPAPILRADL
Experimental: as §1

[2] = target: T4, hCD112R-ECD-mFc E145A variant (human; mouse, UniProt Q6DKI7 42-172); experiment: as above
T4 construct: range 42-172; also called E145A mutation of hCD112R; not shown: Fc domain of mouse IgG2a
T4 sequence (looked up): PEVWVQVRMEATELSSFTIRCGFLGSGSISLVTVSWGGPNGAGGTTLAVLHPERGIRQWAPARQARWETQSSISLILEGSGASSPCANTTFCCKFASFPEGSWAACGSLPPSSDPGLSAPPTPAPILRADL
Experimental: as §1

hCD112R-ECD-mFc WT = target: T5, hCD112R-ECD-mFc WT (human; mouse, UniProt Q6DKI7 42-172); experiment: SPR (Biacore T200), multi-cycle; H733-hIgG4 captured on anti-hFc Ab, hCD112R-ECD-mFc WT injected (3.125-100 nM); 1:1 Langmuir [Cont') B]
T5 construct: range 42-172; also called WT hCD112R; wildtype (WT) hCD112R protein; not shown: Fc domain of mouse IgG2a
T5 sequence (looked up): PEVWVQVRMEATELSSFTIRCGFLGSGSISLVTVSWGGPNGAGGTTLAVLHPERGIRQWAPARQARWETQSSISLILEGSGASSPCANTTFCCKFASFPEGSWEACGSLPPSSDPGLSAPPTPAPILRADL
Experimental: as §1

hCD112R-ECD-His6-Avi [3] = target: T6, hCD112R-ECD-His6-Avi (human, UniProt Q6DKI7 42-172, biotinylated (Avi tag) in the ELISA assays); experiment: SPR (Biacore T200), multi-cycle, H733 captured by anti-hFc Ab, hCD112R-ECD-His6-Avi as analyte, 1:1 Langmuir model
T6 construct: range 42-172; Expressed in HEK 293F cells; Analyte in SPR, and captured on streptavidin in ELISA; also called biotinylated hCD112R-ECD-His6-Avi; not shown: C-terminal His6-Avi tag
T6 sequence (looked up): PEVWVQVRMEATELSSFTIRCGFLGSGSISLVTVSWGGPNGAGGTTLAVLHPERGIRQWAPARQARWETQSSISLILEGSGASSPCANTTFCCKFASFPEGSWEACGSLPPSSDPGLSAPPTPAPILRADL
Experimental: (§2) Anti-hFc Ab (Thermo Fisher) was covalently attached to surfaces of a CM5 sensor chip using an amine coupling kit (GE Healthcare). Abs at optimal concentrations were captured on the chip and the analytes (hCD112R-ECD-His₆-Avi) at single concentration or serial dilutions were then injected. Binding kinetics were evaluated using a 1:1 Langmuir binding model. The association rates (ka), dissociation rates (kd), and affinity constants (KD) were calculated using Biacore T200 evaluation software.

hCD112R-ECD-His6-Avi [4] = target: T6, hCD112R-ECD-His6-Avi; experiment: SPR (Biacore T200), multi-cycle; H733 captured on anti-hFc Ab, hCD112R-ECD-His6-Avi injected; 1:1 Langmuir [Cont') B]
Experimental: as §2

[5] = target: V90A, W100A, or E145A mutation of hCD112R (hCD112R-ECD-mFc variants, as a group); experiment: SPR, multi-cycle, H733-hIgG4 captured by anti-hFc Ab, hCD112R-ECD-mFc variants as analytes (3.125-100 nM)

B1: H733 (humanized Ab composed of 733-VH-humanV2 and 733-VL-human-C91S) (antibody, human IgG4, V domains shown)
VH: QVQLVQSGAEVKKPGASVKVSCKASGYTFTNYLIEWVRQAPGQGLEWMGVINPGHGFTNYAQKFQGRVTMTRDTSTSTVYMELSSLRSEDTAVYYCARGEWDWYFDVWGQGTTVTVSS
VL: DIQLTQSPSFLSASVGDRVTITCKASQNVGTAVAWYQQKPGKAPKLLIYSTSNRYTGVPSRFSGSGSGTEFTLTISSLQPEDFATYYCQQSSSYPFTFGGGTKVEIK
notes: also called H733-hIgG4; H733 mAb (hIgG4 form)
Kd (L72A): 0.469 nM | koff (L72A): 0.000394 s⁻¹ | kon (L72A): 840000 M⁻¹ s⁻¹ | Kd (E94A): 0.533 nM | koff (E94A): 0.000573 s⁻¹ | kon (E94A): 1.08e+06 M⁻¹ s⁻¹ | Kd [1]: 5.64 nM | koff [1]: 0.000574 s⁻¹ | kon [1]: 102000 M⁻¹ s⁻¹ | Kd [2]: 1.42 nM | koff [2]: 0.000418 s⁻¹ | kon [2]: 296000 M⁻¹ s⁻¹ | Kd (hCD112R-ECD-mFc WT): 0.333 nM | koff (hCD112R-ECD-mFc WT): 0.000364 s⁻¹ | kon (hCD112R-ECD-mFc WT): 1.1e+06 M⁻¹ s⁻¹ | Kd (hCD112R-ECD-His6-Avi [3]): 0.65 nM | koff (hCD112R-ECD-His6-Avi [4]): 0.000865 s⁻¹ | kon (hCD112R-ECD-His6-Avi [4]): 1.33e+06 M⁻¹ s⁻¹ | fold decrease of binding as compared with WT hCD112R [5]: 4 to 15 fold
